Assays:
[1] = test system: neurons in the brain (WT brain sections); experiment: Binding of biotinylated osteocalcin to brain sections (anti-biotin immunofluorescence, competition); parameters: species or system mouse
Description: FIG. 3. Osteocalcin binds to neurons in the brain. (A) Measurement of the total osteocalcin in 3 month-old Osteocalcin^−/− mice infused subcutaneously for 7 days with either uncarboxylated osteocalcin (300 ng/hour, right panel) or PBS (left panel). Osteocalcin levels were measured in bone, serum, and different parts of the brain (cortex, midbrain, hypothalamus, brainstem, and cerebellum). (B) Subcutaneous infusion of leptin ([…], right panel) or PBS (left panel) for 7 days in ob/ob mice. Leptin levels were measured in serum, cortex, midbrain, hypothalamus, brainstem, and cerebellum. (C) Binding of GST-biotin (30 μg/ml) (panel 1) and biotinylated osteocalcin (300 ng/ml) (panels 2-4) to the dorsal (DR) and median (MR) raphe nuclei of the brainstem (identified by anti-5-HT immunofluorescence), to the ventral tegmental area (VTA) of the midbrain (identified by anti-TH immunofluorescence), and to the CA3 and CA4 of the hippocampus (identified anatomically). […] Binding with GST-biotin, osteocalcin-biotinylated, and competition assays were performed on adjacent sections. (D) Expression of Tph2 and GAD 1 in brainstem, and Th in midbrain explants from WT and Gprc6a^−/− mice, treated with 10 ng/ml osteocalcin or vehicle. (E) Gene expression in WT primary hindbrain neuron cultures treated with 10 ng/ml osteocalcin or vehicle. (F) Calcium flux response of primary hindbrain cultured neurons to osteocalcin treatment. (G-H) Extracellular current recordings of (G) neurons of the dorsal raphe nucleus and (H) GABAergic interneurons of the brainstem treated with osteocalcin (10 ng/ml).
Brains from 8-week-old mice were snap-frozen in isopentane, and […] thick sections were prepared and desiccated overnight at 4° C. under vacuum. On the following day, sections were rehydrated in ice-cold binding buffer (50 mM TrisHCl [pH 7.4], 10 mM MgCl2, 0.1 mM EDTA and 0.1% BSA) for 15 min and incubated for 1 hr in the presence of biotinylated osteocalcin (3, 30, 300, 3000 ng/ml) or biotynylated recombinant GST as a control ([…]). After washing in harvesting buffer (50 mM Tris-HCl, pH 7.4), samples were fixed in 4% paraformaldehyde for 15 min, washed in PBS and incubated with goat anti-biotin antibody (1:1000, Vector laboratories) over night at 4° C. Signal was visualized by incubating with anti-goat IgG Cy-3 using Leica DM 5000B microscope (Leica). The binding assays were perform on adjacent sections for each conditions tested.
This accumulation in discrete regions of the brain raised the question of whether osteocalcin binds to specific neurons in the brain. This was tested by incubating sections of adult or embryonic (E18.5) WT brains with biotinylated undercarboxylated osteocalcin or GST-biotin alone (30 μg/ml), followed by immunofluorescence analysis using an anti-biotin antibody. […]

[2] = test system: brainstem and midbrain explants from WT and Gprc6a-/- mice; experiment: Gene expression (qPCR) in brainstem and midbrain explants; assay type: cell-based, mouse
Description: For gene expression studies, RNA was isolated from primary neurons or tissue using TRIZOL® (Invitrogen). cDNA synthesis was performed following a standard protocol from Invitrogen and qPCR analyses were done using specific quantitative PCR primers from SABiosciences (www.sabiosciences.com/RT2PCR.php).
Brains were dissected and incubated for 30 minutes in ice cold oxygenated artificial cerebrospinal fluid (ACSF). Brains were then sliced at 500 μm at the midbrain, −1.55 to −2.35 mm from the bregma, and at the level of the brainstem, from −4.04 to −4.48 mm and from −4.60 to −5.20 mm from the bregma, to include the median and dorsal raphe, respectively. These slices were incubated in ACSF for 1 h, constantly oxygenated (95% 02 and 5% CO2) for 4 h, after which they were treated with either osteocalcin (10 ng/ml) or PBS for four hours. Expression of Tph2, TH, GAD1, GAD2, and Ddc was measured by qPCR.
To determine if osteocalcin acts directly on neurons to modulate neurotransmitter synthesis, several types of assays were performed. First, brainstem and midbrain explants from WT and Gprc6a^−/− mice were generated. Brains were sliced (500 μm) at the level of the median and dorsal raphe of the brainstem (from −4.04 to −4.48 mm and from −4.60 to −5.20 mm, respectively), so that they would be enriched in serotonin-producing neurons, as well as at the level of substantia nigrae and ventral tegmental areas (VTA) of the midbrain (from −1.55 to −2.35 mm and from −2.55 to −3.25 mm, respectively). Enrichment in serotoninergic and catecholaminergic neurons in these explants was verified by their high Tph2 and Th expression. While leptin, used here as a positive control, reduced, as it should, Tph2 expression in WT or Gprc6a^−/− brainstem explants, osteocalcin (3 ng/ml) increased expression of this gene 2.5 fold in both WT and Gprc6a^−/− explants. (FIG. 3D). Additionally, osteocalcin increased Th expression in midbrain explants and decreased Gad1 expression in both WT and in Gprc6a^−/− hindbrain explants (FIG. 3D). Second, the cultured WT and Gprc6a^−/− mouse primary hindbrain neurons (MPHN) were treated with osteocalcin (3 ng/ml). […] Third, to further confirm that osteocalcin signals in neurons of the hindbrain, calcium flux in MPHN treated with undercarboxylated or carboxylated osteocalcin (FIG. 3F) was measured. […] Moreover, osteocalcin inhibits the action potential frequency of the GABAergic interneurons of the hindbrain (FIG. 3H).

[3] = biotinylated undercarboxylated osteocalcin, WT brain sections

binding in the brainstem [1, 3]: bound to neurons of the raphe nuclei
specificity of binding in the midbrain and brainstem (competition) ([1]; excess of unlabeled osteocalcin versus excess of GST): specific
B1: uncarboxylated osteocalcin: Recombinant osteocalcin bacterially produced, cleaved from the GST subunit; completely undercarboxylated at all three sites (protein, listed as Homo sapiens)
chain: MRALTLLALLALAALCIAGQAGAKPSGAESSKGAAFVSKQEGSEVVKRPRRYLYQWLGAPVPYPDPLEPRREVCELNPDCDELADHIGFQEAYRRFYGPV
modifications: uncarboxylated
notes: Recombinant osteocalcin bacterially produced, cleaved from the GST subunit; completely undercarboxylated at all three sites
binding in the midbrain [1, 3]: bound to the ventral tegmental area and the substantia nigrae
binding to neuronal populations of the brain ([1]; biotinylated undercarboxylated osteocalcin, adult or E18.5 WT brain sections): bound to several neuronal populations in the forebrain, midbrain, and brainstem
Tph2 expression in brainstem explants ([2]; osteocalcin 3 ng/ml, WT and Gprc6a-/- explants): 2.5 fold
Gad1 expression in hindbrain explants ([2]; osteocalcin, WT and Gprc6a-/- hindbrain explants): decreased
Th expression in midbrain explants ([2]; osteocalcin, midbrain explants): increased

From patent publication US10052364B2, “Osteocalcin as a treatment for cognitive disorders” (THE TRUSTEES OF COLUMBIA UNIVERSITY IN THE CITY OF NEW YORK, priority 2013, dated 2018)
